{
  "source": "patent US11840557B2",
  "about": "“Wnt7 variants capable of activating g-protein coupled receptor (Gpr)124/Reck/frizzled/lipoprotein receptor-related protein (LRP)-mediated Wnt signaling” (UNIVERSITÉ LIBRE DE BRUXELLES, priority 2018, dated 2023)",
  "molecules": {"B1": {"name": "Wnt7a^1-212: smaller NTD variant lacking the linker region (protein)", "chain": "LGASIICNKIPGLAPRQRAICQSRPDAIIVIGEGSQMGLDECQFQFRNGRWNCSALGERTVFGKELKVGSREAAFTYAIIAAGVAHAITAACTQGNLSDCGCDKEKQGQYHRDEGWKWGGCSADIRYGIGFAKVFVDAREIKQNARTLMNLHNNEAGRKILEENMKLECKCHGVSGSCTTK", "modifications": "left off: small tags and cut ends", "notes": "smaller NTD variant lacking the linker region"}, "B2": {"name": "Wnt7a-V5: V5-tagged Wnt7a ligand transiently expressed in cells (protein)", "chain": "LGASIICNKIPGLAPRQRAICQSRPDAIIVIGEGSQMGLDECQFQFRNGRWNCSALGERTVFGKELKVGSREAAFTYAIIAAGVAHAITAACTQGNLSDCGCDKEKQGQYHRDEGWKWGGCSADIRYGIGFAKVFVDAREIKQNARTLMNLHNNEAGRKILEENMKLECKCHGVSGSCTTKTCWTTLPQFRELGYVLKDKYNEAVHVEPVRASRNKRPTFLKIKKPLSYRKPMDTDLVYIEKSPNYCEEDPVTGSVGTQGRACNKTAPQASGCDLMCCGRGYNTHQYARVWQCNCKFHWCCYVKCNTCSERTEMYTCK", "modifications": "left off: small tags and cut ends", "notes": "V5-tagged Wnt7a ligand transiently expressed in cells"}, "B3": {"name": "Wnt7a′: garbled label of a Wnt7a domain variant, probably the C-terminal domain alone (protein)", "chain": "B2 chain"}, "B4": {"name": "Wnt7a^S206A: mutant Wnt7a incapable of being palmitoylated at Serine 206 (protein)", "chain": "B2 chain with S175A", "modifications": "left off: small tags and cut ends"}, "B5": {"name": "Wnt71-237: smaller NTD variant lacking the linker region (protein)", "chain": "LGASIICNKIPGLAPRQRAICQSRPDAIIVIGEGSQMGLDECQFQFRNGRWNCSALGERTVFGKELKVGSREAAFTYAIIAAGVAHAITAACTQGNLSDCGCDKEKQGQYHRDEGWKWGGCSADIRYGIGFAKVFVDAREIKQNARTLMNLHNNEAGRKILEENMKLECKCHGVSGSCTTKTCWTTLPQFRELGYVLKDKYNEAVH", "modifications": "left off: small tags and cut ends", "notes": "as for B1"}},
  "key": {"[1]": {"biological_target": "Reck-CK-Fc", "assay": "Isothermal titration calorimetry (ITC) of synthetic Wnt linker peptides into recombinant Reck-CK-Fc", "type": "binding", "procedure": "Reck-CK-Fc fusion proteins were recovered in serum-free FreeStyle 293 Expression Medium (Thermo Fisher Scientific, Waltham, Mass.) from the supernatant of HEK293T cell cultures 72 h post transfection with Lipofectamine 2000 (Life Technologies, Carlsbad, Calif.). After collection, the supernatants were either concentrated 50 times by centrifugation (GE Healthcare, Little Chalfont, UK) or submitted to Protein G affinity purification (Protein G Sepharose 4 Fast Flow, Sigma-Aldrich, St. Louis, Mo.). Protein purity was assessed using Coomassie blue staining after PAGE. Synthetic Wnt linker peptides were obtained from Chinapeptide Co., Ltd at purities over 90%.\nITC titrations were carried out on an Affinity ITC (TA Instruments). Prior to the measurement, Reck-CK-Fc and all Reck-CK-Fc fusions were dialyzed to Tris-NaCl buffer (50 mM Tris pH8, 300 mM NaCl). In each case Wnt-derived peptides were prepared with buffer from the last step of protein dialysis. The samples were filtered and degassed before being examined in the calorimeter and the titrations were performed 25° C. All the experiments consisted of injection of constant volumes of 2 μL of titrant into the cell (200 μL) with a stirring rate of 75 rpm. Nominal sample concentrations were between 20 μM and 40 μM in the cell and 400 μM to 1.0 mM in the syringe. Actual sample concentrations were determined after dialysis or buffer exchange by measurement of their absorption at 280 nm or the BCA method. All data were analyzed using the MicroCal Origin ITC 7.0, and NanoAnalyze software packages."}, "[2]": {"biological_target": "T1, HA-Reck (Homo sapiens, UniProt O95980)", "T1 construct": "expressed in transfected cells; host or cells: GPR124-/-;RECK-/- HEK293 (STF) cells, pCS2 / CMV promoter", "T1 sequence (O95980 23-942)": "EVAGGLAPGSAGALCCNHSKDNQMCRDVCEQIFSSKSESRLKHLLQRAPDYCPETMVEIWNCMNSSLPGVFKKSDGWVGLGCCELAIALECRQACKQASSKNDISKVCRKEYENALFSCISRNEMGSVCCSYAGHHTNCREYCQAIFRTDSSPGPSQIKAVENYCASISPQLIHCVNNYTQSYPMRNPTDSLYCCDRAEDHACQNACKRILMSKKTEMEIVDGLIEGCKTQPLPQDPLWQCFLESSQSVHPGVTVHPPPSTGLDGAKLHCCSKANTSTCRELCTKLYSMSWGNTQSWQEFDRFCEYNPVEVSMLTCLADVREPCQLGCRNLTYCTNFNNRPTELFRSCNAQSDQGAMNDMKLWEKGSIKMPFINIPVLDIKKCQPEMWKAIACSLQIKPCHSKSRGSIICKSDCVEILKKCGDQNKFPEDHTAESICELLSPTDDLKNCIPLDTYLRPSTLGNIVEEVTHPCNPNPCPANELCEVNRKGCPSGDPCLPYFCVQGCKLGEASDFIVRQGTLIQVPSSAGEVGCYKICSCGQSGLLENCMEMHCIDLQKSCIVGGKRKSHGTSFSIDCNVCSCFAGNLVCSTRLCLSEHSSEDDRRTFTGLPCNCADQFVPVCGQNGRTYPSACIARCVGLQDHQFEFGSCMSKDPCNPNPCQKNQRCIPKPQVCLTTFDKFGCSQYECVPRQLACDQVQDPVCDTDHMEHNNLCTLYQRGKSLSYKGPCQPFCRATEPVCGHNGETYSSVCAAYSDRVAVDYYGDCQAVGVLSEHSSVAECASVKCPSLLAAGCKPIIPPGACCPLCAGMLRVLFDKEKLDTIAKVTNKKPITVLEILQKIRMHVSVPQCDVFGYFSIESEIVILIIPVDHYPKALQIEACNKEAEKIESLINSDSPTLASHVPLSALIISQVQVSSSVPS", "assay": "Proximity ligation assay (PLA), anti-V5/anti-HA, V5-tagged Wnt ligand and HA-Reck in GPR124−/−;RECK−/− cells", "type": "cell-based", "settings": "GPR124−/−;RECK−/− cells co-expressing HA-Reck", "procedure": "(§1) 1.7. Immunofluorescence and Proximity Ligation Assay Cells were grown in glass-coated chambers (IBIDI, Martinsried, Germany) and transfected after 24 h with Lipofectamine 2000 (Life Technologies, Carlsbad, Calif.). Cells were fixed with 4% paraformaldehyde for 10 min at room temperature (RT) 48 h post transfection. For immunofluorescence staining (IF), cells were blocked in 1% BSA-PBS for 30 min before being exposed to primary antibodies for 1 h at RT. After three PBS washes, cells were incubated with secondary antibodies for 1 h at RT. For anti-V5 staining of Wnt ligands, cells were additionally washes for 10 min in PBS 0.1% Tween 20 before incubation with the secondary antibody solution. For the proximity ligation assay (PLA) (Sigma-Aldrich, St. Louis, Mo.), cells were blocked for 30 min at 37° C. with the Blocking solution provided by the manufacturer before being incubated with the primary antibodies for 1 h at RT. Cells were washed three times and incubated with the PLA probes anti-rabbit PLUS and anti-mouse MINUS for 1 h at 37° C. After two PBS washes, cells were incubated with the Duolink Ligation solution for 30 min at 37° C. After two PBS washes, cells were incubated with the Duolink Amplification solution for 100 min at 37° C. The following antibodies were used: mouse monoclonal anti-V5 (R96025, Life Technologies, Carlsbad, Calif.) at 1:500 for IF and PLA, purified polyclonal rabbit anti-HA (H6908, St. Louis, Mo.) at 1:400 for IF and PLA and anti-mouse Alexa488-conjugated secondary antibody (Thermo Fisher Scientific, Waltham, Mass.) at 1:5000. Cells were stained for 2 min with Hoechst diluted to 10 μg ml-1 in PBS.\nCells and zebrafish embryos were imaged with an LSM710 confocal microscope and images were processed in ImageJ. Images of eye fusion phenotypes were taken on Leica M165 FC. Representations of brain vasculature were generated using Imaris software (BitPlane, Zurich, Switzerland). The percentage of PLA positive (PLA+) areas and DAPI positive (DAPI+) areas were calculated using ImageJ on images containing about 50 to 100 cells. The PLA+ area was measured after manually applying a fixed threshold. The DAPI+ area was measured after applying the “default” thresholding method in Image J."}, "[3]": {"tested_on": "plasma membrane of HEK293 cells", "assay": "Anti-V5 immunostaining of transiently expressed V5-tagged Wnt ligands in non-permeabilized cells", "type": "cell-based, human", "procedure": "as §1, with “After two PBS washes, cells were incubated with the Duolink Amplification solution for 100 min at 37° C. The following antibodies were used: mouse monoclonal anti-V5 (R96025, Life Technologies, Carlsbad, Calif.) at 1:500 for IF and PLA, purified polyclonal rabbit anti-HA (H6908, St. Louis, Mo.) at 1:400 for IF and PLA and anti-mouse Alexa488-conjugated secondary antibody (Thermo Fisher Scientific, Waltham, Mass.) at 1:5000. Cells were stained for 2 min with Hoechst diluted to 10 μg ml-1 in PBS.” left out\nIt was determined how Wnt7 is specifically recognized within this signaling module, a question inherently complicated by the ubiquitous expression of Frizzled receptors and their Lrp5/6 co-receptors in vertebrate cells. […]"}},
  "note": "Numbering of substitutions follows the chain as printed. Names may count otherwise. Ends that are not written are not given here.",
  "data": [
    {"molecule": "VEVVRASRLRQPTFLRIKQLRSYQKPMET [pWnt7b]", "values": [
      {"measurement": "Kd", "setting": "[1]; 25° C., Tris-NaCl buffer pH8, read-out: affinity of binding to Reck (ITC)", "result": 1200, "unit": "nM"},
      {"measurement": "Reck CK motifs required for binding (ITC with Reck-CK-Fc deletion variants)", "setting": "[1]; Reck-CK^ΔCK1-Fc to Reck-CK^ΔCK5-Fc", "result": "required Reck CK4 and CK5, but not CK1, CK2 and CK3"}
    ]},
    {"molecule": "pWnt3a: control equivalent linker peptide of Wnt3a (MVVEKHRESRGWVETLRPRYTYFKVPTER) [reference compound]", "values": [
      {"measurement": "binding to Reck-CK-Fc (ITC)", "setting": "[1]; 25° C.", "result": "no binding"}
    ]},
    {"molecule": "B1", "values": [
      {"measurement": "Reck binding (anti-V5/anti-HA PLA signal)", "setting": "[2]", "result": "did not bind Reck"}
    ]},
    {"molecule": "B2", "values": [
      {"measurement": "immunodetection at the plasma membrane", "setting": "[3]; GPR124−/−;RECK−/− cells", "result": "not at those of GPR124^−/−;RECK^−/− cells"},
      {"measurement": "immunodetection at the plasma membrane", "setting": "[3]; WT, FZ1-10−/− and LRP5−/−;LRP6−/− cells", "result": "could be immunodetected at the plasma membrane"}
    ]},
    {"molecule": "B3", "values": [
      {"measurement": "Reck binding (anti-V5/anti-HA PLA signal)", "setting": "[2]", "result": "did not"}
    ]},
    {"molecule": "B4", "values": [
      {"measurement": "Reck binding (anti-V5/anti-HA PLA signal)", "setting": "[2]", "result": "bound Reck efficiently"}
    ]},
    {"molecule": "B5", "values": [
      {"measurement": "Reck binding (anti-V5/anti-HA PLA signal)", "setting": "[2]", "result": "did not bind Reck"}
    ]}
  ]
}
